A short description of the series: soluble on expression in E. coli; label from the status in PepcDB or PDB records.
For the sequence “MEHKKSTDSRSCSQLSTSMDNIQRNLMLLEIEKNEKSSFDDVITGAESDNGWEDCLRETESVQSQWITEQSTIAYPETTRVNCDGPQSYYELADLNYKPAENTVRLARVPSQYQLDALSEIFVFDVPQHIAVKKVEASFLPKYVNTSSEVAQNSVNTTPYFVNSEYVSEMLCNEYSETY”, the “soluble on expression in E. coli” value is listed as “not soluble”.

With “MEIATRLKMNVKEQTEVILTNFTKMLFRRKLIKDQQSLLNKLKNIDTKDIYHFKENDMNFLLIITFQKLNGIKKGSEIEEQLIKSKGYNFIIASQSSNKTYQQVKNFKGELFLTLEFLSDIPSLPFVPEHILLSEKEKEEILSVYKEKNIAKIFVTDMMARYLGAKKGDLIKIIRKTLNTGESIYYRRVF”, the “soluble on expression in E. coli” value was “not soluble”.

As to “MEIEVTPVDILLQLVKMGKVDPWNIDIVDLTEKYIKMLREMQELDLRISARAILAAAILVRMKSEALLNEDSREQEEKEEERIRVEVDPLVPPLRRVERYYTLDDLIDALMEALEEAERRKPKKKKKVEIDEEIFVIDDFRVDIEKYVEELYKVVKKIYEKTGTPIKFWDLVPDVEPKIIARTFLYLLFLENMGRVEIIQEEPFGEILVVPM”, the “soluble on expression in E. coli” value is “soluble”.

On to “MEIGDLNEVNELVSRLNNENVKIAEVNDYIQTLSAGIEEMNVQAQQLSDFAVESSSMAEKGKEISDNVALKVSKISETSREMSNAISILAEYSKKIDEIVYVISSIASQTNLLALNASIEAARAGEAGRGFAVVAENVRELADRSKKAAEQIRDLIKEMQENTNRVIEAIQENVKVTEEVKEAIQELIAAFDDIARRANETATMVKELSEGIDEQANSVQMLVERIDSISKDVSDNLNFATQLTETVKGSIEKLEVIKNKVSQLKDELDKTLEKLEV”, for which the “soluble on expression in E. coli” value is “soluble”.

In the case of “MEIKKGLEDVYVKETEITYIDGELGRLYYRGYSIYDLAEFSNFEEVSYLILYGKLPNREELNWFQEKLREERYLPDFIIKFLREVRKDAQPMDILRTAVSLLGIEDSKNDERTDIKGIKLISKFPTIVANYARLRKGLDIIEPDPKLSHSENFLYMLYGDRPNEIKSKAMDVTLILHIDHEMNASTFASLVVASTFSDLYSSIVAGISALKGPLHGGANYEALKMFKEIGSPEKVNDYILNRLSNKQRIMGFGHRVYKTYDPRARILKQYAKLLAEKEGGEIYTLYQIAEKVEEIGIKYLGPKGIYPNVDFFSSIVFYSLGFEPDFFPAVFASARVVGWVAHIMEYIKDNKIIRPKAYYKGEIGKKYIPIDSR”, the “soluble on expression in E. coli” value is given as “soluble”.

As for “MEISNRLKSISEVMDRCEIAADIGTDHAYLPIYLIKNNLCKRFIASDVNAGPLKKAINNINKYKLEDKIECRLGSGLNVLKLEEVDVVVIAGMGGNLIRDIIEERLDIFKKLKYAVLQPVQNPEILREYLIKRGFNIIEEQLCIDESKYYEIIKVCYDSKIEDKDDVYYEIGDKLIDMKHPLLKEYINYKIRKYDKIYKNISEESLNALSRKNELSIKIRKLKELLSCL”, the “soluble on expression in E. coli” value is reported as “not soluble”.

In the case of “MEKITFEQVKEAVFHEKMSNGLQVYLLPKQGFSKTYAVFTTNYGAIDNNFVPIGETEFTKVPDGIAHFLEHKMFEKEDGDVFFKFGEKGAFTNAFTSFTKTAYLFSSTSRVEENLETLIDFVQEPYFTEETVEKEKGIIGQEIRMYDDDPDFRAYFGVIENMYHNHPVKIDIAGTVESIAEINKDLLYLCYNTFYHPSNMVLFVVGNLEPEEMMNQIRANQAKKDFTEAAPIKRHFPEEPKTVAVKERKIHFPVQIAKNMVGIKEDIGSLEGQVALKQEIIGDVALEMLFGTTSDTYLELYNQGIIDDSFGYDYTLQDSFSFVLVGGDAKDPDMQTTKIIEAIQAAAKNGLNEADLALVKRKRIGQFLRSLNSPEFIANQFSQYVMKSASLFDILPLMETVTLEEVNNFVKNLDSEERTTSFQLLPEK”, the “soluble on expression in E. coli” value was “not soluble”.

For the sequence “MEKKTANDVVTLARAQDRLTTLEYIEAIFEDFLEFHGDRYFADDLAVVGGVATLQGKPVTVVGIQKGRNLPENIERNFGSPNPEGYRKALRLMKQAEKFNRPVITFVNTAGAYCGIGAEERGEGEAIAQNLLEMSDLKVPIISVIIGEGGSGGALALAVADEVWMLEHTIYAVLSPEGFASILWKDGSRAKEAAELMKITATELKELAIVDKVIPEVMNGQPLEQAKINRMLQKAFISKLTELAKLDTETLLEKRYQRFRKY”, the “soluble on expression in E. coli” value is “not soluble”.

Regarding “MEKNDIFVVIPAYNEEKMIKNTLINLKSHGYENIIVVDDGSRDNTSKIAISEEVIVCKHIINRGLGGALKTGLKCAVKYNPKVIVTFDADGQHDPEDIFKVSEPILEDSFDVVVGSRLIDENELKNMPLIKKIGNWGLNFITYLMGGRMVTDSQGGLRAFSYDAAEIVSKQLKSNRYEVSSEFIVLFKKNNLKFKEVPIKTIYTEYSMARGTNVITGFKILFKLLIQKLILEHHHHHH”, the “soluble on expression in E. coli” value is “soluble”.

As for “MEKPSPTRRQTSSLSTISNGMTMTNDNRDTTNTNSGSTSSNNSQPSSSSTPPAASGPVTDRTKVNYVPKSDDPSSFQYYPDDPENPVNKYKFALKADSQYYDPCEESSKLSFQCLERNDYDRSKCQEYFDAYRECKKQWLTARRKNRQQWE”, the “soluble on expression in E. coli” value is recorded as “soluble”.

Consider “MEKQKTFHVAVVGATGAVGEQMLNTLEKREFPIGKLTLLSSKRSAGKKLVFKGEEFTVQEATPESFEGVDIALFSAGGSVSKQLAPEAAKRGAIVVDNTSAFRMTENVPLVVPEVNENDLKEHNGIIANPNCSTIQMVVALEPVRQQYGLKRVIVSTYQAVSGAGAAAIEELHEQSQAILNGEEVKANVLPVSGDKKHFPIAFNAIPQIDKFQDNGFTFEEMKMINETKKIMHMPELEVAATCVRLPVVSGHSESVYIEVEKEGVTVEELKSLLANAEGIVLQDNPEEQLYPMPATAVGKNEVFVGRIRKDLNNDKGFHLWVVSDNLLKGAAWNSVQIAERLVKLQLV”, for which the “soluble on expression in E. coli” value was “not soluble”.

With “MEKVVCIGCGVTIQTEDKTGLGYAPPASLTKENVICQRCFRLKNYNEIQDVSLTDDDFLNILHGIGETDSLVVKIVDIFDFNGSWINGLQRLVGGNPILLVGNKADILPKSLKRERLIQWMKREAKELGLKPVDVFLVSAGRGQGIREVIDAIEHYRNGKDVYVVGCTNVGKSTFINRIIKEVSGEEDIITTSQFPGTTLDAIEIPLDDGSSLYDTPGIINNHQMAHYVNKKDLKILSPKKELKPRTFQLNDQQTLYFGGLARFDYVSGERSPFICYMPNELMIHRTKLENADALYEKHAGELLTPPGKDEMDEFPELVAHTFTIKDKKTDIVFSGLGWVTVHDADKKVTAYAPKGVHVFVRRSLI”, the “soluble on expression in E. coli” value is given as “not soluble”.

On to “MELGQAMVTVAGIGCRKGAASDAIIAAVRAAERAFGVTVDYLATAPLKADEAGLAEAAKGLSLSLEIVAQERLEAVAAETMTFSQASLDHSGSPSVSEAAALAAAGAGARLVAPRLVVGDVTVAIAMTSDAPHGSRSAIEYGEQE”, for which the “soluble on expression in E. coli” value is “not soluble”.

Turning to “MELKDRIKAARKHAHLSQVQLAQAVGMTQTSISDLERGKSRATSFVAQIAGACGVNPLWLAEGRGEMLAERGQANAGPNASWLGAVESWDDETPLDADEIELPFYKEIELSGGKGSTVILQTGGRKLRFGKYTLRKKNIDPASAACVTVSGNSMEPVLPDGSTVGVDTSARTIKDGDMYAFDHDGQLRVKLLYRLPGGGLRIRSFNSDEHPDERYEPQEAAEHINVIGRVFWYSVLV”, the “soluble on expression in E. coli” value is on record as “not soluble”.

Turning to “MELLLLSNSTLPGKAWLEHALPLIANQLNGRRSAVFIPFAGVTQTWDEYTDKTAEVLAPLGVNVTGIHRVADPLAAIEKAEIIIVGGGNTFQLLKESRERGLLAPMADRVKRGALYIGWSAGANLACPTIRTTNDMPIVDPNGFDALDLFPLQINPHFTNALPEGHKGETREQRIRELLVVAPELTVIGLPEGNWIQVSNGQAVLGGPNTTWVFKAGEEAVALEAGHRF”, the “soluble on expression in E. coli” value is listed as “soluble”.

Regarding “MELNAVKSSYARWAPIYDKTFGAITNVGRHAAVDYINAHDATELLEVGVGTGLSLPNYRPGLKVTGIDFSEEMLAKARAKVESLGLGHVQSLRQMDARDLDFADASFDVVAAMHIISVVPEPERVMAEMARVCKPGGLIVITNHFARDSGMLARVERFAAPFANLLGWHPDFEISSVLKQPLEHHHHHH”, the “soluble on expression in E. coli” value was “not soluble”.

For the sequence “MELPSMNVPFSRYCWVTLTIQDHLPIDSFRSLNLSITNDNYSGGDLKAYPADFNGILAGNWFTFSPVTYSMKLQYNYTNGAEEATRVRVYCKSPLPYWLPYCG”, the “soluble on expression in E. coli” value is “not soluble”.

On to “MELQLAIDLLNKEEAAKLAQKVEEYVDIVEIGTPIVINEGLPAVQHLNENINNAKVLADLKIMDAADYEVSQAVKYGADIVTILGVAEDASIKAAVEEAHKHGKALLVDMIAVQNLEQRAKELDEMGADYIAVHTGYDLQAEGKSPLDSLRTVKSVIKNSKVAVAGGIKPDTIKDIVAEDPDLVIVGGGIANADDPVEAAKQCRVAIEG”, for which the “soluble on expression in E. coli” value is listed as “not soluble”.

“MELSADYLREKLRQDLEAEHVEVEDTTLNRCATSFRVLVVSAKFEGKPLLQRHRLVNECLAEELPHIHAFEQKTLTPEQWTRQRRE”: the “soluble on expression in E. coli” value is “soluble”.

Consider “MELWLVRHGETLWNREGRLLGWTDLPLTAEGEAQARRLKGALPSLPAFSSDLLRARRTAELAGFSPRLYPELREIHFGALEGALWETMDPRYKEALLRFQGFHPPGGESLSAFQERVFRFLEGLKAPAVLFTHGGVVRAVLRALGEDGLVPPGSAVAVDWPRRVLVRLALDGEEATG”, for which the “soluble on expression in E. coli” value is “soluble”.

As to “MEMRGKITKINENGLGVLGNILVPFAYPGDEVEVTETRERFGKIIARDFKLMTPSPLRIPGKCSHFGKCGGCLWQGLRYREQLKLKEEIFKRITGIEAEIKGSPRIWYFRNISNFIITVNGIGFKEFGMPKTVVNIRECPIFSERTPKYLKALKDFLRESNLKPWNWREGDVHYLQVREGKFTGEVMVNIIAHVPLNYREALMEAFNFADSIYWSLKADKKDDPRGFPTLVLGNEVIREKVEGITYLIHPSVFFQTNSYALPLLLKSVEKFCEGSKVLDLYSGIGTLSLYLAKRGFEVTGVEVNGTSVEMAKRSAEINSINATFIQGKAEDAELEGYETLIVDPPRKGLKEFSRRIVKKGPNTLIYVSCNPLRFILDYRNYLSEAYKVDDALLIDMFPHTPHIEAVIKLVRR”, the “soluble on expression in E. coli” value is on record as “soluble”.

On to “MENAPLLFQLPDDDTLYQALLARDPAYEGFAFVGVKSTGVFCRLTCAARKPKRENTVFFGSIKGCVEAGFRACLRCRPLERAGVQEPWVQTLLEQLGRDPERRWYEDDLVAQGLDPSTVRRAFKRYFGVTFLEMARLRRMGQGMQQLASGEPVIEAQISAGFDSDSGFRHAFSRLAGQPPSNLRGRELLKVDWLQTPIGVMLAVADAQVLHLLEFFDRPALANELQNLQKSSGSSIGFGRFAPIDQIEAELQRYFAGEAVHFATPLAMSASPFTRTVWQALRAIPLGTTCSYAEVARQVGSPSAVRAVARANAANQISIVIACHRVIGADGSLTGYGGGLEHHHHHH”, for which the “soluble on expression in E. coli” value is given as “not soluble”.

As to “MENNENHEKLNGVLRKFLGDAFTLDGKEGGLNMEKLREAIKKEKPIMNILLMGATGVGKSSLINALFGKEVAKAGVGKPITQHLEKYVDEEKGLILWDTKGIEDKDYENTLESIKKEMEDSFKTLDEKEAIDVAYLCVKETSGRVQERERESYLEHHHHHH”, the “soluble on expression in E. coli” value was “not soluble”.

As to “MENQEVVLSIDAIQEPEQIKFNMSLKNQSERAIEFQFSTGQKFELVVYDSEHKERYRYSKEKMFTQAFQNLTLESGETYDFSDVWKEVPEPGTYEVKVTFKGRAENLKQVQAVQQFEVKMAGDPLEHHHHHH”, the “soluble on expression in E. coli” value was “soluble”.

The values are drawn from the DeepSol protein solubility set.
